Reference: publication PMC11573500
“And” between values parts separate entries of the source, which are not always exact repeats. Equal values may be shown once.

Legend:
[1] = target: phosphorylated human CFTR E1371Q (human) (UniProt P13569); assay: cryo-EM structure; phosphorylated E1371Q CFTR (~5 mg/mL) in digitonin with PKA-C (~10 mg/mL), 3 mM ATP/Mg2+; 200 mM NaCl, 20 mM HEPES pH 7.4, 1 mM DTT
[2] = target: dephosphorylated wild-type human CFTR (human) (UniProt P13569); assay: cryo-EM structure; 30 uM dephosphorylated wild-type CFTR in digitonin, 250 uM bPKA-C, 2 mM AMP-PNP/Mg2+; 200 mM NaCl, 20 mM HEPES pH 7.4, 1 mM DTT
[3] = target: dephosphorylated human CFTR E1371Q (human) (UniProt P13569); assay: cryo-EM structure; 30 uM dephosphorylated E1371Q CFTR in digitonin, 250 uM bovine PKA-C, 1 mM P-ATP/Mg2+ and 1 mM AMP-PNP/Mg2+; 200 mM NaCl, 20 mM HEPES pH 7.4, 1 mM DTT
[4] = target: CFTR D58A expressed in Xenopus laevis oocytes (human) (UniProt P13569)
[5] = target: CFTR E51A expressed in Xenopus laevis oocytes (human) (UniProt P13569)
[6] = target: CFTR D47A expressed in Xenopus laevis oocytes (human) (UniProt P13569)
[7] = target: WT CFTR expressed in Xenopus laevis oocytes (human) (UniProt P13569)

stoichiometry N (PKA-C per CFTR) [1]	stoichiometry N (PKA-C per CFTR) [2]	stoichiometry N (PKA-C per CFTR) [3]	half-time (t1/2) of macroscopic current activation by 300 nM bPKA-C in 2 mM ATP, relative to WT CFTR [4]	half-time (t1/2) of macroscopic current activation by 300 nM bPKA-C in 2 mM ATP, relative to WT CFTR [5]	half-time (t1/2) of macroscopic current activation by 300 nM bPKA-C in 2 mM ATP, relative to WT CFTR [6]	half-time (t1/2) of current activation by 300 nM rPKA-C in 2 mM ATP, relative to 300 nM bPKA-C on WT CFTR [7]	Substance
1	1 and 2	1	2 fold	2 fold	2 fold		protein kinase A catalytic subunit purified from bovine heart (from UniProt P00517 1-351) (enzyme)
						6 fold	recombinant bovine PKA-C, wild type (from UniProt P00517 1-351) (enzyme)
